Assay results published in US20060234940A1 (OSI PHARMACEUTICALS, published 2006).
Where no end group is shown, it is not given here. The star is where a group is joined. Thia = thiazolidide, C1CN(*)CS1

How the values were obtained:
[1] = molecular target: T1, recombinant human DP IV, mutation R560A (human, UniProt P27487 37-766); assay: photometric assay, competition with the standard substrate GP-4NA
T1 construct: range 37-766; Same Pichia construct as the wild type, single mutation by site-directed mutagenesis; also called mu 15 DP IV; mu 15
Method: (§1) In order to measure the inhibition constant Kᵢ a photometric assay was used The peptides were measured as competitors of the standard substrate GP-4-Nitroanilide. Three different substrate concentrations (0.4 mM to 0.05 mM) were combined with 8 different competitor concentrations (0.5 mM to 2 μM). […] Experiments were carried out under standard conditions: 30° C. in pH 7.6 40 mM HEPES (Sigma-Aldrich) buffer. Nitroaniline production was monitored using a HTS 7000+ microplate reader (PerkinElmer, Überlingen, Germany).

[2] = molecular target: T2, recombinant human DP IV, mutation W629A (human, UniProt P27487 37-766); assay: as above
T2 construct: range 37-766; Same Pichia construct as the wild type, single mutation by site-directed mutagenesis; also called mu 16 DP IV; mu 16
Method: as §1

[3] = molecular target: T3, porcine kidney DP IV, wild type (porcine, UniProt P22411 38-766, natively glycosylated (Asn279 among others, as seen in the crystal)); assay: MALDI-TOF MS, inhibition of DP IV-catalyzed truncation of the substrate GIP after preincubation with TFTSDY
T3 construct: In the crystal a 2-2-2 symmetric tetramer (dimer of dimers); also called p wt DP IV; p wt

[4] = molecular target: T3, porcine kidney DP IV, wild type; assay: MALDI-TOF MS, inhibition of DP IV-catalyzed truncation of the substrate glucagon after preincubation with TFTSDY
[5] = molecular target: T3, porcine kidney DP IV, wild type; assay: MALDI-TOF MS, inhibition of DP IV-catalyzed truncation of the substrate NPY after preincubation with TFTSDY
[6] = molecular target: T3, porcine kidney DP IV, wild type; assay: MALDI-TOF MS, inhibition of DP IV-catalyzed truncation of the substrate RANTES1-15 after preincubation with TFTSDY
[7] = molecular target: DP IV; assay: photometric assay, competition with the standard substrate GP-4-nitroanilide; source of DP IV not stated
[8] = molecular target: T3, porcine kidney DP IV, wild type; assay: MALDI-TOF MS, inhibition of DP IV-catalyzed truncation of the substrate GLP-1 after preincubation with TFTSDY
[9] = molecular target: T3, porcine kidney DP IV, wild type; assay: photometric assay, competition with the standard substrate GP-4NA
Method: as §1

T3 sequence (P22411 38-766): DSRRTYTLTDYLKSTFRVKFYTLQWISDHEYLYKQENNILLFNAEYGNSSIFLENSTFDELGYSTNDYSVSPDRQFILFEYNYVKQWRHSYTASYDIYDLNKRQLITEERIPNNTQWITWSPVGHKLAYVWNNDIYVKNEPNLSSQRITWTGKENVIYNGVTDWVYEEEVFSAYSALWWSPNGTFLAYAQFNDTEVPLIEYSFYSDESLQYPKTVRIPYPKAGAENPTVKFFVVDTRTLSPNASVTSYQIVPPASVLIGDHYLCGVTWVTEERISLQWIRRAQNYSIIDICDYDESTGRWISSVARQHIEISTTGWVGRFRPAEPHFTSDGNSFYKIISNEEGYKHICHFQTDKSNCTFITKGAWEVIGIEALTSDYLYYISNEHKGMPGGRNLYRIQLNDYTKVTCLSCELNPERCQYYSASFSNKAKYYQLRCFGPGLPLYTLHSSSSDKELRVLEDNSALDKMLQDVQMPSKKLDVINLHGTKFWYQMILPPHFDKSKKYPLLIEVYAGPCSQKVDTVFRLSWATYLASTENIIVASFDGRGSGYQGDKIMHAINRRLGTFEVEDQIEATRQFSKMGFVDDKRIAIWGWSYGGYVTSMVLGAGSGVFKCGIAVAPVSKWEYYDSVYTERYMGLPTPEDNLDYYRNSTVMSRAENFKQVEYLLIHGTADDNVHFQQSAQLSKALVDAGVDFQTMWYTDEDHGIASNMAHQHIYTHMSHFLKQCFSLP
T1 sequence (P27487 other isoform, or with tags, fused parts or gaps R560A R560A limits assumed): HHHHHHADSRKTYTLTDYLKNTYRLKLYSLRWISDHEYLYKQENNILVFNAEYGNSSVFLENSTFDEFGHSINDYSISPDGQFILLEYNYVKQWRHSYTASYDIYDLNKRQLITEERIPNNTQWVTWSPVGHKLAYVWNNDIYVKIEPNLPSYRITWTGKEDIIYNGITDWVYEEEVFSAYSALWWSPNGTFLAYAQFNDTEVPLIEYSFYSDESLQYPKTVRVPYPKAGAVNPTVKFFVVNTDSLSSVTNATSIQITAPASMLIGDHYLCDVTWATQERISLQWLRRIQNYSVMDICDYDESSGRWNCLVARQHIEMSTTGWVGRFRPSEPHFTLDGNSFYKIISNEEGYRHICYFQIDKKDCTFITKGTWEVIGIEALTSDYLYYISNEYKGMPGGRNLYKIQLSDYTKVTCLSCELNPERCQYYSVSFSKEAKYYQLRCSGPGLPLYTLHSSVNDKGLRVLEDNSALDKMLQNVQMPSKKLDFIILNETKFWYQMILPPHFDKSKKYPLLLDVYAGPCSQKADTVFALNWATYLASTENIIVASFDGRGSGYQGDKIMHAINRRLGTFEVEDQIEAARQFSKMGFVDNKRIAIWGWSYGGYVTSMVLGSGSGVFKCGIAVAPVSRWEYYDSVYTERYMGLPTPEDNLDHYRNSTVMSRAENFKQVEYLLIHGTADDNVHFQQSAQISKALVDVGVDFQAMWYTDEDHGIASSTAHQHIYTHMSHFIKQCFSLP
T2 sequence (P27487 other isoform, or with tags, fused parts or gaps W629A W629A limits assumed): as the sequence (P27487 other isoform, or with tags, fused parts or gaps R560A R560A limits assumed) above, with A530R, W599A counted along it
Sequence of DP IV (chain, as listed by the source): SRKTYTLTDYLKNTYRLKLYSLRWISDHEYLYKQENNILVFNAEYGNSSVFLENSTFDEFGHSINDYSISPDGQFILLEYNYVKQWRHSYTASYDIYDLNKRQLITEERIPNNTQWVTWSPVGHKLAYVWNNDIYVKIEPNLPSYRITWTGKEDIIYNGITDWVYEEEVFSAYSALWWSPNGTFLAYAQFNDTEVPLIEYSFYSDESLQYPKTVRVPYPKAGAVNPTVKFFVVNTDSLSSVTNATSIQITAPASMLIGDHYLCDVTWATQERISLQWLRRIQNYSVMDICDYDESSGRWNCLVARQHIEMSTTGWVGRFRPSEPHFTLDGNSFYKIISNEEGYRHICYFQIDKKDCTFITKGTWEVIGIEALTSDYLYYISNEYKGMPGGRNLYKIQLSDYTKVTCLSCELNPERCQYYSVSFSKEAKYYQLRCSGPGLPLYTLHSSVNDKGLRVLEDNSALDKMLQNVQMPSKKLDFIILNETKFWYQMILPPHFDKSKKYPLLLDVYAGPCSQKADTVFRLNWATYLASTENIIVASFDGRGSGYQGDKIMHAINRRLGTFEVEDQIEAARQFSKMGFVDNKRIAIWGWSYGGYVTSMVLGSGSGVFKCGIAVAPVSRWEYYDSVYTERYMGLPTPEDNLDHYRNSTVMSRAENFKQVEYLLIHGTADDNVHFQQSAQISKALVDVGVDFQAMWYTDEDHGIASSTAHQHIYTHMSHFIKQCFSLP

Q: How did the Ki [1] turn out when RRLSYSRRRFE-Thia (also: linkage of decapeptide to Glu not explained) [Transp 01 (RRLSYSRRRF-E-Thia)] was run?
A: 0.0769 µM

Q: What about the Ki [2] of the same binder?
A: 0.0855 µM

B1: hexapeptide TFTSDY (peptide)
peptide: TFTSDY
notes: also called glucagon5-10; T(5)-F-T-S-D-Y
Q: How did the Ki [3] turn out when B1 was run?
A: 65.9 µM

Q: And the Ki [4]?
A: 6.8 µM

Q: What about the Ki [5] of the same binder?
A: 17.2 µM

Q: And the Ki [6]?
A: 12300 µM

Q: What about the Ki [7] of the same binder?
A: 710 µM

Q: What about the Ki [8] of the same binder?
A: 13.7 µM

Q: YAESTF-NH2 [YAESTF amide] was tested. Which Ki [1] did it give?
A: 1.14 µM

Q: What about the Ki [2] of the same binder?
A: 1.06 µM

Q: How did the Ki [9] turn out when HSDGIFTDSYSRYRKQMAVKKYLAAVL (peptide, UniProt P18509 132-158, looked up, ends and bridges not checked, range 132-158; also called PACAP(1-27)) [PACAP-27] was run?
A: 54.3 µM
